From the nanobody polyreactivity screen of Harvey et al. (2022)

Assay: yeast display, Sf9 membrane polyspecificity reagent, FACS + sequencing; frameworks hold sequencing errors
Summary of the method: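 Nanobodies from a synthetic yeast display library (Saccharomyces cerevisiae BJ5465), induced 36–48 hours with galactose, were stained 1 hour at 4 °C with 10% biotinylated, detergent-solubilized Sf9 membrane reagent, enriched on streptavidin microbeads, then FACS-sorted. Anti-HA (expression) and streptavidin (reagent binding) fluorescence set low and high (top ~1%) gates. Polyreactivity labels come from the gate of origin. Genes were colony-PCR amplified, MiSeq 2 × 250 sequenced and filtered by CDR length.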

With “QVQLVESGGGLVQAGGSLRLSCAASGSTIYINGMGWYRQAAGKERELVAVISKRGGTTYYADSVKGRFTISRDNAKNTVYLQMNSLKPEDTAVYYCADRPYYWGQGTQVTVSS” the “polyreactivity (PSR sort gate)” value was “high polyreactivity”.
With “QVQLVESGGGLVQAGGSLRLSCAASGSTIYLYAMGWSRPAPGKERVLVAAIRGRGGRTYYADSVKGRFTISSDNAKNTVYLKMNSLKPEDTAVYYCNADVYAYYRATTRFDYWGQGTQVTVSS” the “polyreactivity (PSR sort gate)” value was “high polyreactivity”.
For “QVQLVESGGGLVQAGGSLRLSCAASGSTLAIYAKGWYRQAPGKERELVAAISGGGSTYADSVKGRFTISRDNAKNTVYLQMNSLKPEDTAVYYCNADGWGDRFWSNFRFDYWGQGTQVTVSS”, the “polyreactivity (PSR sort gate)” value was “low polyreactivity”.
In the case of “QVQLVESGGGLVQAGGSLRLSCAASGSTLALNAIGWYRQAPGKEREFVADISWSGGDTYYADSVKGRFTISRDNAKNTVYLQMNILKPEDTAVYYCATDFSYQFQALEDDYWGQGTQVTVSS”, the “polyreactivity (PSR sort gate)” value is reported as “low polyreactivity”.
For “QVQLVESGGGLVQAGGSLRLSCAASGSTLALYTMGWYIQAPGKERELVAAISKNGGRTYYADSVKGRFRISRDNAMNTVYLQMNSLKPEDTAVYYCAAASGSYRGYDYWGQCTQVTVSS”, the “polyreactivity (PSR sort gate)” value was “high polyreactivity”.
With “QVQLVESGGGLVQAGGSLRLSCAASGSTLARYAMGWYRQAPGKERELVAAISSDGRTYYADSVKGRFTISRDNAKNTVYLQIYSLKPEDTAVYYCATLRPYAYPQYDSWGQGTQVTVSS” the “polyreactivity (PSR sort gate)” value was “high polyreactivity”.
For “QVQLVESGGGLVQAGGSLRLSCAASGSTLDGYGMRWYRQAPGKERELVAVITIGGGRTYYADSVKGRFTISRDNAKNTVYLQMNSLKPEDTAVSYCAAKGWRRYYIGDYWGQGTQVTVSS”, the “polyreactivity (PSR sort gate)” value was “high polyreactivity”.
With “QVQLVESGGGLVQAGGSLRLSCAASGSTLDSYAMGSYRQAPGKERELVAAISGSGGSTYYADSVKGRFTISRDNAKNTVYLEMNSLKPEDTAVYYCDTDYSTQTLGYWYDYWGQGTQVSVSS” the “polyreactivity (PSR sort gate)” value was “low polyreactivity”.
In the case of “QVQLVESGGGLVQAGGSLRLSCAASGSTLFYAMGWYRQAPGKERELVAAISWSGGSTRYADSVKGRFTISRDNAKNTVYLQMNSLKPEDTAVYYCNTYTKHTGYYWKYDYWGQGTQVTVSS”, the “polyreactivity (PSR sort gate)” value is reported as “low polyreactivity”.
With “QVQLVESGGGLVQAGGSLRLSCAASGSTLGDNGMGWYIQAPGKERELVAAITIGGSTTYADSVKGRFTISRDNAKNTVYLQMNSLKPEDTAVYYCAADQQARDQYSDWTEYDYWGQGTQVNVSS” the “polyreactivity (PSR sort gate)” value was “low polyreactivity”.
In the case of “QVQLVESGGGLVQAGGSLRLSCAASGSTLGPYAMGWYRQAPGKERELVATINSSGSTNYADSVKGRFTISRDNAKNPVYLQMNSLKPEDTAVYYCATLHYYYWYDYWGQGTQVTVSS”, the “polyreactivity (PSR sort gate)” value is reported as “low polyreactivity”.
For “QVQLVESGGGLVQAGGSLRLSCAASGSTLGRYAMGWYRQAPGKERELVASITWSDDSTYYADSVKGRFTISRDNAKNTVYLQMNSLKPEDTAVYYCAAAGNLYTYRFYYWGQGTQVTVSS”, the “polyreactivity (PSR sort gate)” value was “low polyreactivity”.
In the case of “QVQLVESGGGLVQAGGSLRLSCAASGSTLGVYAMGWYRQAPGKERELVAAITIGGSTNFADSVKGRFTISRDNAKNTVYLQLNSLKPEDTAVYYCNAYYYWEGHGYTLLSYYYWGQGTQVTVSS”, the “polyreactivity (PSR sort gate)” value is reported as “low polyreactivity”.
For “QVQLVESGGGLVQAGGSLRLSCAASGSTLGWYGMGWSRQAPGKERELVAAIDSGGNTYADSVKGRFTISRDNAKNTVYLQMNSLKPEDTAVYYCAVDGGEFSSYGYWGQGTQVTVSS”, the “polyreactivity (PSR sort gate)” value was “low polyreactivity”.
For “QVQLVESGGGLVQAGGSLRLSCAASGSTLGYYAMGWYRQAPGIVRELVAAISWSGGRTYYADSVKGRFTISRDYAKNTVYLQMKSLKPEDTAVYYCNALYRTHYTGSVYYSWGQGTQVSVSS”, the “polyreactivity (PSR sort gate)” value was “high polyreactivity”.
With “QVQLVESGGGLVQAGGSLRLSCAASGSTLGYYAMGWYRQAPGKERELVAAITSSDGGTYYADSVKGRFTISRDNAKNTVYLQMNSLKPEDTAVYYCAKRRYTSAFGSWYAYDYWGQGTQVNVSS” the “polyreactivity (PSR sort gate)” value was “high polyreactivity”.
For “QVQLVESGGGLVQAGGSLRLSCAASGSTLIDNVMGWYRQAPGKERELVASITSSDGTTYADSVKGRFTISRDNAKNTVYLQMNSLKPEDTAVYYCAARPWYGTYNYWGQGTQVTVSS”, the “polyreactivity (PSR sort gate)” value was “low polyreactivity”.
In the case of “QVQLVESGGGLVQAGGSLRLSCAASGSTLIRNDMGWYRQAPAKERELVAAINTRGTTTYYADSVKGRFTISRDNAKNTVYLQMNSLKPEDTAVYYCAAYAYSAYSPDGQRSRYYYWGQGTQVTVSS”, the “polyreactivity (PSR sort gate)” value is reported as “high polyreactivity”.
With “QVQLVESGGGLVQAGGSLRLSCAASGSTLIRNVMGWYRQAPGKERELVAAINTRGTTTYYADSVKGRITISRDNAKNTVYLQMNSLKPEDTAVYYCAARTPHYSYGYWGQGTHVTVSS” the “polyreactivity (PSR sort gate)” value was “high polyreactivity”.
With “QVQLVESGGGLVQAGGSLRLSCAASGSTLISYAMGSYRQAPGKERELDAAITYNGGTTHYADSVKGRLTISRDNAKNSVYLQLKSLKPEDTAVYYCAKAQGHVRVSRGLQGGRYDYWGQGTQVTVSS” the “polyreactivity (PSR sort gate)” value was “low polyreactivity”.
In the case of “QVQLVESGGGLVQAGGSLRLSCAASGSTLISYTMGWYRQAPGKERELVAAITSAVTTYYADSVKGRFTISRDNAKNTVYLQMNSLKPEDTAVYYCNTYPFKTLPYRYPRGDYWGQGTQVTVSS”, the “polyreactivity (PSR sort gate)” value is reported as “low polyreactivity”.
With “QVQLVESGGGLVQAGGSLRLSCAASGSTLIVYAMGWYRQAPGKEREFVAGITVSTGSTYYADSVKGRFTISRDNAKNTVYLQMNSQKPEDTAVYYCAADIRDGWDYFLFWEDGMDYSGQGTQVTVSS” the “polyreactivity (PSR sort gate)” value was “low polyreactivity”.
In the case of “QVQLVESGGGLVQAGGSLRLSCAASGSTLKYNAMGWYRQAPGKEREFVASITLSACRTYYADSVKGRFTISRDNAKNTVYLQMNSLKPEDTAVYYCAARRYFSYRYDYWGQGTQVTVSS”, the “polyreactivity (PSR sort gate)” value is reported as “high polyreactivity”.
With “QVQLVESGGGLVQAGGSLRLSCAASGSTLKYYAMGWYRQAPGKERELVARITRSSGSTYYADSVKGRFTISRDNAKNTVFLHMNSLKPEDTAVYYCNKVYKSYYCGCYDWGQGTQVTVLS” the “polyreactivity (PSR sort gate)” value was “high polyreactivity”.
For “QVQLVESGGGLVQAGGSLRLSCAASGSTLLFYAMGWYRQAPGKEREFLATITFRGGSTYYADSVKGRFTISRDNAKNTVYLQMNSLKPEDTAVYYCNAGSRRGYYRSRPGGYCGQGTQVTVSS”, the “polyreactivity (PSR sort gate)” value was “high polyreactivity”.
In the case of “QVQLVESGGGLVQAGGSLRLSCAASGSTLLVYAMGWYRQAPGKERELVAAITYSGTTTYYADSVKGRFTISRDNAKNTVYLQMNSLKPEDTAVYYCAKYPGYFQGNYWGQGTQVTVSS”, the “polyreactivity (PSR sort gate)” value is reported as “low polyreactivity”.
For “QVQLVESGGGLVQAGGSLRLSCAASGSTLLYYAMGWYRQAPGKERELVAAISWRGGSTYYADSVTGRFTISRDNAKTTVYLQINSLKPEDTAVYYCARDIRLKGFRYDYWGQGTQVTVSS”, the “polyreactivity (PSR sort gate)” value was “high polyreactivity”.
For “QVQLVESGGGLVQAGGSLRLSCAASGSTLNDYAMGWYRQSPGKERELVAGINRGGSTNYADSVKGRFTISRDNAKNTVYLQMKSLKPVDTAVYYCAVRAYRWRSTLGLYYWGQGTQVTVSS”, the “polyreactivity (PSR sort gate)” value was “high polyreactivity”.
With “QVQLVESGGGLVQAGGSLRLSCAASGSTLNRNVMGWYRQAPGKEREFVAVITYGVGSTYYADSVKGRFTISRDNAKNTVYLQMNSLKPEDTAVYYCNKDPLVFDYWGQGTQVTVSS” the “polyreactivity (PSR sort gate)” value was “low polyreactivity”.
For “QVQLVESGGGLVQAGGSLRLSCAASGSTLRGYAMGWYRQAPGKERELVARITSGGRTSYADSVKGRFTISRDNAKNTVYLQMNSLKPEDTAVYYCATRIYGWSFGSWYKYDYWGQGTQVTVSS”, the “polyreactivity (PSR sort gate)” value was “low polyreactivity”.
With “QVQLVESGGGLVQAGGSLRLSCAASGSTLRGYTMGWYRPAPGKERELVAAISWSGASTYYADSVKGRFTISRDSAKNTVYLQMNSLKPEVTAVYYCAVRYWAPYDEYGYWGQGTQVTVSS” the “polyreactivity (PSR sort gate)” value was “high polyreactivity”.
With “QVQLVESGGGLVQAGGSLRLSCAASGSTLRGYTMGWYRQAPGKERELVAAISWSGASTYYADSVKGRFTISRDNAKNTVYLQMNSLKPEDTAVYYCYRAGRYVREYTVDYWGQGTQVTVSS” the “polyreactivity (PSR sort gate)” value was “high polyreactivity”.
With “QVQLVESGGGLVQAGGSLRLSCAASGSTLRRHAMGWYRQAPGKERELVAAISSGGSTYYEDSVKGRFTISRDNAKNTVYLQMNSLKPEDTAVYYCAAPYSYRTWYPYGYWVQGTQVTVSS” the “polyreactivity (PSR sort gate)” value was “high polyreactivity”.
For “QVQLVESGGGLVQAGGSLRLSCAASGSTLRRNAMGWYRQAPGKERELVAAISSGGSTYYADSVKGRFTISRDNAKNTVYLQMNSLKPEDTAVYYCNAAVPRGRYTSYYRSGWLDYWGQGTQVTVSS”, the “polyreactivity (PSR sort gate)” value was “high polyreactivity”.
With “QVQLVESGGGLVQAGGSLRLSCAASGSTLRRYAMGWYRQAPGKERELVAAISGTGSRTYYADSVKGRFSISRDNATNTVYLHMISLKREDTAVYYCNASPYGLTENDYWGQGTQVTVSS” the “polyreactivity (PSR sort gate)” value was “high polyreactivity”.
With “QVQLVESGGGLVQAGGSLRLSCAASGSTLRRYAMGWYRQAPGKERELVAAITSRGTDTYYADSVKGRFTISRDNAKNTVYLQMNSLKPEDTAVYYCANRRGYVYYPGYDYWGQGTQVTVSS” the “polyreactivity (PSR sort gate)” value was “high polyreactivity”.
For “QVQLVESGGGLVQAGGSLRLSCAASGSTLRYYAMGSYRQAPGKERELVAAISTGGSTYYADSVKGRFTISRDNAKNTVYLQMNSLKPEDTAVYYSAADGYAHVWDYAYDYWGQGTQVTVSS”, the “polyreactivity (PSR sort gate)” value was “low polyreactivity”.
In the case of “QVQLVESGGGLVQAGGSLRLSCAASGSTLSAYVMGWYRQAPGKERELVAAITRGGNTYYADSVKGRFTISRDNAKNTVYLQMNSLKPEDTAVYYCAARTYVSYGYYTRNYWGQGTQVTVSS”, the “polyreactivity (PSR sort gate)” value is reported as “high polyreactivity”.
With “QVQLVESGGGLVQAGGSLRLSCAASGSTLSDNAMGWYRQAPGKERELVARISGDGSTNYADSVKGRFTISRDNAKNTVYLQMNSLKPEDTAVYYCNAGTAGIYYYGKSDYWGQGTQVTVSS” the “polyreactivity (PSR sort gate)” value was “low polyreactivity”.
In the case of “QVQLVESGGGLVQAGGSLRLSCAASGSTLSFNAMGWYRQAPGKERELVAGITYSGASTYYADSVKGRFTISRDNAKNTVYLQMNSLKPEDTAVYYCAADSPYQIYYYWGQGTQVTVSS”, the “polyreactivity (PSR sort gate)” value is reported as “low polyreactivity”.
With “QVQLVESGGGLVQAGGSLRLSCAASGSTLSKYAMGWYRQAPGKEREFVAAISRSGGSTYYADSVKGRFTISRDKAKNTVYLQMNSLKPEDTAVYYCAKVLRTFSGLYYWGQGTQVTVSS” the “polyreactivity (PSR sort gate)” value was “high polyreactivity”.
With “QVQLVESGGGLVQAGGSLRLSCAASGSTLSKYAMGWYRQAPGKERELVATISIRGGNTYYADSVKGRFTFSRDNAKNTVYLQMNSLKPEDTAVYYCAARRVNAPPSYRQKAGYDYWGQGTQVTVSS” the “polyreactivity (PSR sort gate)” value was “high polyreactivity”.
With “QVQLVESGGGLVQAGGSLRLSCAASGSTLSQYAMGLYRQAPGKERELVAAITKSGVRTYYPDSVKGRFTISRDNAKNTVYLQMNSLKREDTAVYYCAKATTKYIAPYDYWGQGTQVTVSS” the “polyreactivity (PSR sort gate)” value was “high polyreactivity”.
